Values of other authors as cited in PMC9570074.
Where two headings read alike, the source gives them in different places. Blank lines part the entries; values can stand above or below the substance they belong to.

How the values were obtained:
[1] = biological target: CD30L (Homo sapiens) (UniProt P32971); assay: SPR
[2] = biological target: TRAIL (Homo sapiens) (UniProt P50591)
[3] = biological target: TRAIL (Homo sapiens) (UniProt P50591); remark: listed apart in the source

Chain of UniProt P50591 (P50591 whole entry): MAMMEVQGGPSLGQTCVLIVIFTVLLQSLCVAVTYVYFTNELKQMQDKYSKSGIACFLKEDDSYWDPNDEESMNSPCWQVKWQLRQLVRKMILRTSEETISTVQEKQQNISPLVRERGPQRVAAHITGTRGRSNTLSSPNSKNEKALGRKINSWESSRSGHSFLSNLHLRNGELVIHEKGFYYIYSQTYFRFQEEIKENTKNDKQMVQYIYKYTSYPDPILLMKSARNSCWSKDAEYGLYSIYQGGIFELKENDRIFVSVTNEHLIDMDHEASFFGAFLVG
Chain of UniProt P32971 (P32971 whole entry): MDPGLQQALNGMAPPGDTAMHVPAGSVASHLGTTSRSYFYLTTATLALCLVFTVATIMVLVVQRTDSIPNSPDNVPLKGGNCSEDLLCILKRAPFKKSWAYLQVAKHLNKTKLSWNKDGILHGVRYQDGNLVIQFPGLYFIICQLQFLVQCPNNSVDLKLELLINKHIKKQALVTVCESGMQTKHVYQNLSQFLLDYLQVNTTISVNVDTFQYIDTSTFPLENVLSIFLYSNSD

- Kd [1]: 5 nM
Substance: CD30 (from UniProt P28908)

- Kd [2]: 1 nM
Substance: DcR1 (from UniProt O14798)

- Kd [3]: 1 nM
Substance: DcR2 (from UniProt Q9UBN6)
